Like-named read-outs stand apart in the source and are kept apart here.
T1: human IL-18 binding protein (IL-18BP) (human, UniProt O95998 31-194)
T1 construct: also called hu IL-18BP; hIL18BP
T1 sequence (looked up): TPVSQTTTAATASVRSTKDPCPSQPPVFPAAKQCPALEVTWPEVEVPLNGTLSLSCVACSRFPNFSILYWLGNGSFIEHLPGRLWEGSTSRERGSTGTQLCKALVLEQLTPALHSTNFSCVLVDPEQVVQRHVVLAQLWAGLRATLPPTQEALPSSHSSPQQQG

T2: IL-18 receptors on HEK-Blue IL-18 reporter cells (InvivoGen) (UniProt Q13478 19-541; O95256 20-599)
T2 sequence (looked up) 1: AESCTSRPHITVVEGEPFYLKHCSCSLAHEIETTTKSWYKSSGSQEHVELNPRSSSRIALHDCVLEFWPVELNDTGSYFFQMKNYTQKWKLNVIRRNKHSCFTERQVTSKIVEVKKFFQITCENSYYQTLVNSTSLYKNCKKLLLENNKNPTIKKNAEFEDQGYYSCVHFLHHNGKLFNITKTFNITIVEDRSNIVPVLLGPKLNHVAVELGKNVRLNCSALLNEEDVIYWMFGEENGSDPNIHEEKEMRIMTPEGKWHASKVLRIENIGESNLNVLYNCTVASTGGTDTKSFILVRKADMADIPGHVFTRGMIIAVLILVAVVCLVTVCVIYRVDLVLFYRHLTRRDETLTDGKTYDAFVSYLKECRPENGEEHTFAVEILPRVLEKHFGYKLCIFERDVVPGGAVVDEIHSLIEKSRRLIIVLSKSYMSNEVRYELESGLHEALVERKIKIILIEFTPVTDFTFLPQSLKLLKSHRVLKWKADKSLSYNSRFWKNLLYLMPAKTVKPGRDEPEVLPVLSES
T2 sequence (looked up) 2: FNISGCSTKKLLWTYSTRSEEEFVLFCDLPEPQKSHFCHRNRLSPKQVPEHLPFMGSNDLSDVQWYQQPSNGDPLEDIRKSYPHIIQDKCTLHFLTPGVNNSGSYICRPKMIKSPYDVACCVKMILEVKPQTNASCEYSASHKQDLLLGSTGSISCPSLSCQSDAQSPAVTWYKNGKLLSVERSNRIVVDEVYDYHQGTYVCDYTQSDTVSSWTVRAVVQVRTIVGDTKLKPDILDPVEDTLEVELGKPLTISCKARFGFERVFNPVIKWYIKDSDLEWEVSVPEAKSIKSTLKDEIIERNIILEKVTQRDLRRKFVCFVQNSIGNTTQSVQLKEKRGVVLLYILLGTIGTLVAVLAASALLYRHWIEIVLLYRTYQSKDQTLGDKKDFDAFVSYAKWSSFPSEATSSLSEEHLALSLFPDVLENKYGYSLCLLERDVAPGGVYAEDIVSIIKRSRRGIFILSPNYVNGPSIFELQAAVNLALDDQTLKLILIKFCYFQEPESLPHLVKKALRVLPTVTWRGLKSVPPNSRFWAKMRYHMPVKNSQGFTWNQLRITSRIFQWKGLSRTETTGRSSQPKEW

T3: IL-18 receptor (IL-18Rα and IL-18Rβ) (UniProt Q13478 19-541; O95256 20-599, limits assumed)
T3 sequence (looked up) 1: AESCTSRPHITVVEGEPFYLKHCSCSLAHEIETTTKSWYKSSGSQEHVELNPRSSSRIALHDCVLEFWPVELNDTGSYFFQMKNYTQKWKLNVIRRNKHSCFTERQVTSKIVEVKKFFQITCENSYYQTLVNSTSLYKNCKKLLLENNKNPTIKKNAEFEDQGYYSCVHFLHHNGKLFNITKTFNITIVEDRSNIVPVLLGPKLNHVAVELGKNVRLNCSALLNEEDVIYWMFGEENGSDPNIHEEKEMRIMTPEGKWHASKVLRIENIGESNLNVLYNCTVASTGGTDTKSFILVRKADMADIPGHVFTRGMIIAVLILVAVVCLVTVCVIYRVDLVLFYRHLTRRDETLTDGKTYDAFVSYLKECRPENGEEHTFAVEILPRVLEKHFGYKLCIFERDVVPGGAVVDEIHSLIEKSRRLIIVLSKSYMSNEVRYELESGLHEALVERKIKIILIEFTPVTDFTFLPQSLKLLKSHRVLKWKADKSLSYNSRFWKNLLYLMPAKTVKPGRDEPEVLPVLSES
T3 sequence (looked up) 2: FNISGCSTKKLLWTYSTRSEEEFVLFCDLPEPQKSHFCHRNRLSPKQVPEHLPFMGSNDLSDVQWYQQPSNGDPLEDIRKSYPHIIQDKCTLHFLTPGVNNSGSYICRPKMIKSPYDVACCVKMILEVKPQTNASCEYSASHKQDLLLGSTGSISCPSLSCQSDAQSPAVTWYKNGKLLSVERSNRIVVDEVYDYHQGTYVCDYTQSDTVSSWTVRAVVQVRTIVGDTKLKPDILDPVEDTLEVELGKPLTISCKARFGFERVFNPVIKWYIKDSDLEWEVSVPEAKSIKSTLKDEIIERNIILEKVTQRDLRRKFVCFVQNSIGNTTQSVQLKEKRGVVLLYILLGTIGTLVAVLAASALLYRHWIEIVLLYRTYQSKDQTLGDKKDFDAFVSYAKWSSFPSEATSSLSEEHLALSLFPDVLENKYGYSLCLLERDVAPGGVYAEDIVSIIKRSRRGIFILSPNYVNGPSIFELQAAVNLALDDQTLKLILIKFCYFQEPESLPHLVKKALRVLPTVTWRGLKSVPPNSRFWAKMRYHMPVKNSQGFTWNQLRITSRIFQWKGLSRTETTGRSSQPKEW

T4: human IL-18 receptor alpha (IL-18Rα) (human, UniProt Q13478 19-329, limits assumed)
T4 construct: also called hu IL-18Ra; IL-18R alpha
T4 sequence (looked up): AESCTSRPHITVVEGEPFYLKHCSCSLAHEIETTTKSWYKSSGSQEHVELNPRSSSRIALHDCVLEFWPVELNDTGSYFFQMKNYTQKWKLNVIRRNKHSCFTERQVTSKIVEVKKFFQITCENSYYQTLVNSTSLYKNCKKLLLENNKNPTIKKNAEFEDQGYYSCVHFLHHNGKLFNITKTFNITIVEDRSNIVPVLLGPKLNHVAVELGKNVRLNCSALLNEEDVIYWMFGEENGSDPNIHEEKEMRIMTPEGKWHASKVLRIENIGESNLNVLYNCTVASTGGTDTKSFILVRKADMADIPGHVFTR

T5: human IL-18R alpha/beta pair (IL-18Rab) (human, UniProt Q13478 19-329; O95256 20-356)
T5 construct: also called hu IL-18Rab
T5 sequence (looked up) 1: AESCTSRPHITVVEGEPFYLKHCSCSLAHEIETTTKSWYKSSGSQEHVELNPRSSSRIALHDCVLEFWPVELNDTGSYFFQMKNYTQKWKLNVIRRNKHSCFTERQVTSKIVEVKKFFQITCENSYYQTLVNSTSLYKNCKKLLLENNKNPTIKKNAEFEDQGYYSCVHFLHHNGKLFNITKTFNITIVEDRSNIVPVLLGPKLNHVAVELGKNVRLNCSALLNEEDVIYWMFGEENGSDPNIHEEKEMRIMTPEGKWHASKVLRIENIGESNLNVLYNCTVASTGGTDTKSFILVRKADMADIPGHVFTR
T5 sequence (looked up) 2: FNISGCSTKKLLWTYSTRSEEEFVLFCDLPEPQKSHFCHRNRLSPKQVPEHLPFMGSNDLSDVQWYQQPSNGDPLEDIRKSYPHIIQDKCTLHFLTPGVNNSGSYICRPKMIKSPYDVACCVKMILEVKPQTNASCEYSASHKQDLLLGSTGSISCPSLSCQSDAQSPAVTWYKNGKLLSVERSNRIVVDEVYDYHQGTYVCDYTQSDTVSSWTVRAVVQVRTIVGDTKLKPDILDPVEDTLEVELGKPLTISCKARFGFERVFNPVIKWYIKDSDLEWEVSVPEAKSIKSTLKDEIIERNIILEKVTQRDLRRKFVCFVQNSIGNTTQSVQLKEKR


Experiments:
[1] = target: T1, human IL-18 binding protein (IL-18BP); test: Octet BLI
Procedure: (§1) Octet 96red instrument was used to determine affinities of IL18 proteins to BP or receptors. 5-10 ug/ml analyte proteins were used for loading on Sartorius tips (AHC or SA). […] 120-180 s loading, 200 s association and 800 s dissociation were used for kinetics. 3-7 data points were used to calculate affinities.
Select G3/K53-substitution containing IL-18 variants and select G3/K53/N91-substitution containing TL-18 variants were tested for activity in the HEK-blue activity assay and for binding affinity to IL-18BP. As shown in the data of Table 15 and Table 16 below, each variant had similar or better activity than WT IL-18, and retained substantial activity in the presence of IL-18BP.

[2] = target: T2, IL-18 receptors on HEK-Blue IL-18 …; test: cell-based or functional assay
[3] = target: T1, human IL-18 binding protein (IL-18BP); test: cell-based or functional assay
[4] = target: T3, IL-18 receptor (IL-18Rα and IL-18Rβ); test: cell-based or functional assay
[5] = target: T2, IL-18 receptors on HEK-Blue IL-18 …; test: cell-based or functional assay; remark: listed apart in the source
[6] = target: T1, human IL-18 binding protein (IL-18BP); test: cell-based or functional assay; remark: listed apart in the source
[7] = target: T2, IL-18 receptors on HEK-Blue IL-18 …; test: cell-based or functional assay; remark: listed apart in the source
[8] = target: T1, human IL-18 binding protein (IL-18BP); test: cell-based or functional assay; remark: listed apart in the source
[9] = target: T4, human IL-18 receptor alpha (IL-18Rα); test: Octet BLI
Procedure: as §1

[10] = target: T1, human IL-18 binding protein (IL-18BP); test: Octet BLI; remark: listed apart in the source
Procedure: as §1

[11] = target: T5, human IL-18R alpha/beta pair (IL-18Rab); test: Octet BLI
Procedure: as §1

[12] = target: T2, IL-18 receptors on HEK-Blue IL-18 …; test: cell-based or functional assay; remark: listed apart in the source
[13] = target: T1, human IL-18 binding protein (IL-18BP); test: cell-based or functional assay; remark: listed apart in the source

Binder	Kd [1]	koff [1]	kon [1]	HEK-Blue Ec50 (pM), -IL-18BP [2]	HEK-Blue Ec50 (pM), +IL-18BP (50 nM) [3]	EC50 pM, IFN gamma expression in PBMCs [4]	HEK-Blue Ec50 (pM), -IL-18BP [12]	HEK-Blue Ec50 (pM), +IL-18BP (50 nM) [13]	further results
IL-18 variant G3A, K53S (ligand) YFAKLESKLSVIRNLNDQVLFIDQGNRPLFEDMTDSDMRDNAPRTIFIISMYSDSQPRGMAVTISVKSEKISTLSSENKIISFKEMNPPDNIKDTKSDIIFFQRSVPGHDNKMQFESSSYEGYFLASEKERDLFKLILKKEDELGDRSIMFTVQNED	16.2 nM	0.00398 s⁻¹	245000 M⁻¹ s⁻¹	1.69 pM	4.45 pM				
IL-18 variant G3S, K53S (ligand) YFSKLESKLSVIRNLNDQVLFIDQGNRPLFEDMTDSDMRDNAPRTIFIISMYSDSQPRGMAVTISVKSEKISTLSSENKIISFKEMNPPDNIKDTKSDIIFFQRSVPGHDNKMQFESSSYEGYFLASEKERDLFKLILKKEDELGDRSIMFTVQNED	12 nM	0.00338 s⁻¹	283000 M⁻¹ s⁻¹	2.06 pM	4.43 pM				
IL-18 variant G3F, K53S (ligand) YFFKLESKLSVIRNLNDQVLFIDQGNRPLFEDMTDSDMRDNAPRTIFIISMYSDSQPRGMAVTISVKSEKISTLSSENKIISFKEMNPPDNIKDTKSDIIFFQRSVPGHDNKMQFESSSYEGYFLASEKERDLFKLILKKEDELGDRSIMFTVQNED	11.8 nM	0.0048 s⁻¹	408000 M⁻¹ s⁻¹	3.39 pM	5.88 pM				
IL-18 variant G3T, K53S (ligand) YFTKLESKLSVIRNLNDQVLFIDQGNRPLFEDMTDSDMRDNAPRTIFIISMYSDSQPRGMAVTISVKSEKISTLSSENKIISFKEMNPPDNIKDTKSDIIFFQRSVPGHDNKMQFESSSYEGYFLASEKERDLFKLILKKEDELGDRSIMFTVQNED	18 nM	0.00474 s⁻¹	263000 M⁻¹ s⁻¹	2.5 pM	5.18 pM	368 pM			
IL-18 variant G3T, E6K, K53A (ligand, also called G3T, K53A, E6K) YFTKLKSKLSVIRNLNDQVLFIDQGNRPLFEDMTDSDMRDNAPRTIFIISMYADSQPRGMAVTISVKSEKISTLSSENKIISFKEMNPPDNIKDTKSDIIFFQRSVPGHDNKMQFESSSYEGYFLASEKERDLFKLILKKEDELGDRSIMFTVQNED									HEK-Blue Activity Assay Ec50 (pM), -hu IL-18BP [5]: 0.04 pM; HEK-Blue Activity Assay Ec50 (pM), +300 nM hu IL-18BP [6]: 1.49 pM; HEK-Blue EC50 pM, NO BP (50 nM BP run) [7]: 0.05 pM; HEK-Blue EC50 pM, NO BP (300 nM BP run) [7]: 0.04 pM; Fold Change (BP/NO BP), 50 nM BP [8]: 2.79 fold; Fold Change (BP/NO BP), 300 nM BP [8]: 35.2 fold; HEK-Blue EC50 pM, +50 nM BP [8]: 0.14 pM; HEK-blue EC50 (pM) + 300 nM BP [8]: 1.49 pM; Kd [9]: 10 nM; Kd [10]: 6 nM; Kd [11]: 0.32 nM
IL-18 variant G3R, N91W, K53A (ligand, also called G3R/K53A/N91W) YFRKLESKLSVIRNLNDQVLFIDQGNRPLFEDMTDSDMRDNAPRTIFIISMYADSQPRGMAVTISVKSEKISTLSSENKIISFKEMNPPDWIKDTKSDIIFFQRSVPGHDNKMQFESSSYEGYFLASEKERDLFKLILKKEDELGDRSIMFTVQNED	1 nM	0.000185 s⁻¹	185000 M⁻¹ s⁻¹			49.8 pM	0.04 pM	4.22 pM	
IL-18 variant G3R, N91M, K53S (ligand, also called G3R/K53S/N91M) YFRKLESKLSVIRNLNDQVLFIDQGNRPLFEDMTDSDMRDNAPRTIFIISMYSDSQPRGMAVTISVKSEKISTLSSENKIISFKEMNPPDMIKDTKSDIIFFQRSVPGHDNKMQFESSSYEGYFLASEKERDLFKLILKKEDELGDRSIMFTVQNED	3.3 nM	0.000735 s⁻¹	223000 M⁻¹ s⁻¹			73.9 pM	0.12 pM	2.16 pM	
IL-18 variant G3H, N91V, K53S (ligand, also called G3H/K53S/N91V) YFHKLESKLSVIRNLNDQVLFIDQGNRPLFEDMTDSDMRDNAPRTIFIISMYSDSQPRGMAVTISVKSEKISTLSSENKIISFKEMNPPDVIKDTKSDIIFFQRSVPGHDNKMQFESSSYEGYFLASEKERDLFKLILKKEDELGDRSIMFTVQNED	8.6 nM	0.0031 s⁻¹	359000 M⁻¹ s⁻¹			222 pM	0.94 pM	2.51 pM	
